# Results taken from the supplement of paper PMC10126150.
# ± gives the standard deviation of the averaged measurements.
# System: ATP
# Assay: switch fluorescence ratio, 500 uM ATP over buffer (Cy3 cluster intensity, sum of 5 cycles each) (fold (ratio)); higher = stronger signal-on switching upon ATP binding; sequences stand for … in TCGTCGGCAGCGTCAGATGTGTATAAGAGACAGTTTTTTTTTTTTTTTTTTTTTTTTT…TC
# Conditions: aptamer strand: ATP DNA aptamer (quencher-CACCTGGGGGAGTATTGCGGAGGAAGG + anchor), 100 nM annealed; ATP concentration: 500 uM
# Method in brief: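 After annealing to 100 nM quencher-labelled ATP aptamer, Cy3-labelled switching-strand clusters on a modified Illumina MiSeq flow-cell were imaged in selection buffer. A second image followed after 15 min with 500 uM ATP at 22 °C, and five such buffer/ATP cycles were done, each separated by NaOH stripping and re-annealing. The fluorescence ratio, averaged per switch-domain sequence, is summed target-cycle over summed buffer-cycle Cy3 intensity per cluster, with clusters outside 100-1000 RFU excluded.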
# 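Also: ATP exposure 15 min at 22 °C before imaging.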
sequence,measurement,value
ACTAGCTGTA,switch fluorescence ratio,0.982 ± 0.034
ATAAGCGTGG,switch fluorescence ratio,0.995 ± 0.082
CTGGGATTGG,switch fluorescence ratio,1.001 ± 0.0039
GTGGGGCTTA,switch fluorescence ratio,0.994 ± 0.032
CGGGGGAGCG,switch fluorescence ratio,1 ± 0.045
ATAACAAGAC,switch fluorescence ratio,1.32 ± 0.067
ATTCGCAGCA,switch fluorescence ratio,1.22 ± 0.056
TGAGAGGGGT,switch fluorescence ratio,1.05 ± 0.042
ATGTTTAAGC,switch fluorescence ratio,1.05 ± 0.048
AGATAGGGGA,switch fluorescence ratio,1.01 ± 0.025
AGAACTTAAG,switch fluorescence ratio,1.01 ± 0.037
CGTTTTGCAG,switch fluorescence ratio,1.03 ± 0.032
AGTGGGAGGG,switch fluorescence ratio,1 ± 0.02
CAGGGAAAAT,switch fluorescence ratio,0.982 ± 0.012
TTCGGAGGCT,switch fluorescence ratio,1.23 ± 0.3
TGTCTGGGGG,switch fluorescence ratio,1.01 ± 0.025
AGCTGAAGTT,switch fluorescence ratio,0.989 ± 0.036
AGATTCACTT,switch fluorescence ratio,1.01 ± 0.013
TCGGGCAGTG,switch fluorescence ratio,0.99 ± 0.03
AGCTACGTTT,switch fluorescence ratio,0.9963 ± 0.0053
ATATAGTTCG,switch fluorescence ratio,0.967 ± 0.047
TGTGGTGGGG,switch fluorescence ratio,0.996 ± 0.042
CTAATTATGA,switch fluorescence ratio,1.01 ± 0.048
TAAACCTAGC,switch fluorescence ratio,1.46 ± 0.062
TGGCCTAGG,switch fluorescence ratio,1 ± 0.029
CATCTGTGCG,switch fluorescence ratio,1.02 ± 0.016
CTGACTTTTT,switch fluorescence ratio,1.02 ± 0.016
CGTTTGGGTC,switch fluorescence ratio,1.01 ± 0.031
GTGTGGGAGC,switch fluorescence ratio,1 ± 0.06
TGGGGGCATT,switch fluorescence ratio,1.01 ± 0.033
GGTGGGGGCT,switch fluorescence ratio,0.973 ± 0.034
GATGGTAAAC,switch fluorescence ratio,1.05 ± 0.056
AGTGGACGGG,switch fluorescence ratio,0.994 ± 0.023
ACGGCTGTTC,switch fluorescence ratio,1.01 ± 0.027
GCGAGCGGGT,switch fluorescence ratio,1 ± 0.016
TGAGTGCAGG,switch fluorescence ratio,1.02 ± 0.066
TGTTTTTGGT,switch fluorescence ratio,0.978 ± 0.016
AGTGGGGGGA,switch fluorescence ratio,1.02 ± 0.028
GCTTTGTGTA,switch fluorescence ratio,1.01 ± 0.049
ACCATGCCGG,switch fluorescence ratio,1 ± 0.077
CAAAGGGAAA,switch fluorescence ratio,1.02 ± 0.033
TGTCACTGTG,switch fluorescence ratio,0.979 ± 0.049
GAGGCCTTGG,switch fluorescence ratio,0.983 ± 0.04
ATAAAAAGGA,switch fluorescence ratio,1.0058 ± 0.00029
AGGGGTGTGT,switch fluorescence ratio,1.01 ± 0.019
CAGGAAGCAG,switch fluorescence ratio,1.05 ± 0.09
TAATTTAAGG,switch fluorescence ratio,0.993 ± 0.039
ACCGACGCGG,switch fluorescence ratio,2.55 ± 0.34
CGGCAAGGCT,switch fluorescence ratio,1.22 ± 0.1
ACTTTTGCTG,switch fluorescence ratio,0.983 ± 0.019
TATGTTTCGG,switch fluorescence ratio,0.98 ± 0.011
ATATGGTGGG,switch fluorescence ratio,1.01 ± 0.025
TTGGGCGGGT,switch fluorescence ratio,0.994 ± 0.041
GAATGGCTAG,switch fluorescence ratio,1.0109 ± 0.00049
CAGGGTGAAC,switch fluorescence ratio,1.02 ± 0.019
AAAACAGGAT,switch fluorescence ratio,0.9954 ± 0.0095
AGGCGGCCTG,switch fluorescence ratio,0.982 ± 0.016
AATGATGCCT,switch fluorescence ratio,0.995 ± 0.036
CTTTAGGTGG,switch fluorescence ratio,1.03 ± 0.037
ACCGCACCAA,switch fluorescence ratio,1.34 ± 0.051
TGTTTGGCGG,switch fluorescence ratio,0.966 ± 0.02
ACTAGGTGTG,switch fluorescence ratio,1.04 ± 0.013
ACACGGTGGG,switch fluorescence ratio,0.975 ± 0.054
TTGATCGATG,switch fluorescence ratio,0.9886 ± 0.0068
AGGATTGGGT,switch fluorescence ratio,0.99 ± 0.017
GACTTCGAAA,switch fluorescence ratio,1.63 ± 0.028
GGGACAATAT,switch fluorescence ratio,1.02 ± 0.044
TTGGTAAAGG,switch fluorescence ratio,0.999 ± 0.048
TGAGTTATGC,switch fluorescence ratio,0.953 ± 0.015
TAATGCGATT,switch fluorescence ratio,1.04 ± 0.017
ATGTGGTTCC,switch fluorescence ratio,1.004 ± 0.0025
AAATGTTCAC,switch fluorescence ratio,0.996 ± 0.034
TTTGGGTGTT,switch fluorescence ratio,1.02 ± 0.046
TGCGGGCAAG,switch fluorescence ratio,0.992 ± 0.015
TATGTACTGT,switch fluorescence ratio,1.09 ± 0.03
GACTGTACTA,switch fluorescence ratio,1.48 ± 0.075
CACGGTGGGT,switch fluorescence ratio,0.9898 ± 0.0079
TGTAAGAGTG,switch fluorescence ratio,0.983 ± 0.021
TATGCTAGC,switch fluorescence ratio,1.03 ± 0.091
GAATGGCTGG,switch fluorescence ratio,0.962 ± 0.0099
AGCTATTAAG,switch fluorescence ratio,0.9947 ± 0.0065
ACGGTGCTTG,switch fluorescence ratio,0.99 ± 0.015
CTAAAAGAGG,switch fluorescence ratio,0.997 ± 0.019
CAATCTGGGA,switch fluorescence ratio,0.978 ± 0.019
AGGGAGCTGG,switch fluorescence ratio,0.998 ± 0.013
TAATGTGTGG,switch fluorescence ratio,0.9885 ± 0.0094
TTTCACCTTT,switch fluorescence ratio,1.02 ± 0.047
GGACATAATT,switch fluorescence ratio,1.01 ± 0.029
CCCCACTGTG,switch fluorescence ratio,1.53 ± 0.69
TGTAGCAGCT,switch fluorescence ratio,1.12 ± 0.045
TAGAGGTATG,switch fluorescence ratio,1.01 ± 0.028
ACGGATGGCT,switch fluorescence ratio,0.984 ± 0.023
TTTACTTTGC,switch fluorescence ratio,1.48 ± 0.69
ATGTCAGGGG,switch fluorescence ratio,1.14 ± 0.021
TAGGGCATCA,switch fluorescence ratio,0.987 ± 0.042
ATTGGGGGAC,switch fluorescence ratio,0.98 ± 0.03
TTATGTGGGT,switch fluorescence ratio,0.989 ± 0.029
TGGGATAAAG,switch fluorescence ratio,0.9923 ± 0.0029
ACTGGGGTAG,switch fluorescence ratio,1.02 ± 0.061
GGTCTAAGTG,switch fluorescence ratio,0.9816 ± 0.0034
GTTTAATATT,switch fluorescence ratio,0.99 ± 0.026
GCTCCGATAG,switch fluorescence ratio,5.2 ± 0.94
GGTTAATTAG,switch fluorescence ratio,0.9819 ± 0.0077
TAGGTGCTTC,switch fluorescence ratio,1.029 ± 0.0099
AGCTGCGACG,switch fluorescence ratio,0.992 ± 0.044
CGGGACACGT,switch fluorescence ratio,0.9677 ± 0.0063
GAGAGAAGTG,switch fluorescence ratio,0.945 ± 0.022
CTGGGCAGGT,switch fluorescence ratio,1 ± 0.016
CCAGGTTATC,switch fluorescence ratio,1.04 ± 0.032
CCGGTTTCGT,switch fluorescence ratio,1.26 ± 0.26
AGTCCGGACC,switch fluorescence ratio,0.967 ± 0.026
GGACTTATGG,switch fluorescence ratio,0.9851 ± 0.0091
AGTTCTTGGC,switch fluorescence ratio,1.02 ± 0.0042
GGGGCTGGGG,switch fluorescence ratio,1.01 ± 0.034
CGGAACGCA,switch fluorescence ratio,2.01 ± 0.046
GTGTCCTTGG,switch fluorescence ratio,1.006 ± 0.0084
AAAAGGTGCC,switch fluorescence ratio,1.13 ± 0.024
GTGGGATGTT,switch fluorescence ratio,1.01 ± 0.015
TTCCAGCTTT,switch fluorescence ratio,1.02 ± 0.024
TCTTTACGGT,switch fluorescence ratio,1.04 ± 0.045
TATAGTATTG,switch fluorescence ratio,0.9861 ± 0.0087
GCTATATACA,switch fluorescence ratio,1.04 ± 0.014
TGTTTGGATG,switch fluorescence ratio,0.973 ± 0.029
GTCAGAGAGT,switch fluorescence ratio,1.02 ± 0.013
ATCTAAAAGG,switch fluorescence ratio,1.01 ± 0.059
TAGATCGGGG,switch fluorescence ratio,1.008 ± 0.01
TACGGGGTAG,switch fluorescence ratio,0.996 ± 0.028
TTGCAGGTGT,switch fluorescence ratio,1.85 ± 0.47
TTTGTTAACG,switch fluorescence ratio,0.99 ± 0.013
GGTTAGATTG,switch fluorescence ratio,1.01 ± 0.006
AATTTGAGTG,switch fluorescence ratio,0.977 ± 0.032
GAACTATTTC,switch fluorescence ratio,1.036 ± 0.0019
GGGAAGATTG,switch fluorescence ratio,0.966 ± 0.052
TGCTTATTTG,switch fluorescence ratio,1 ± 0.023
GATCCTGAAC,switch fluorescence ratio,1.37 ± 0.12
CGGGGGGGCT,switch fluorescence ratio,0.997 ± 0.026
ATTGGACTGG,switch fluorescence ratio,0.998 ± 0.057
CTTTTGGGGG,switch fluorescence ratio,0.991 ± 0.028
GACTATTGGG,switch fluorescence ratio,1 ± 0.044
ATTGGACAGT,switch fluorescence ratio,1 ± 0.075
AGGGATAGAT,switch fluorescence ratio,0.99 ± 0.026
AGTTCAGAAC,switch fluorescence ratio,0.9899 ± 0.0075
ATGTGGAGAC,switch fluorescence ratio,0.9921 ± 0.005
GCGTTTAACT,switch fluorescence ratio,0.9888 ± 0.008
GCATTTTGAA,switch fluorescence ratio,1.02 ± 0.026
GGGTGCGATT,switch fluorescence ratio,1.03 ± 0.025
TTGTAGACGT,switch fluorescence ratio,1.02 ± 0.0093
TGGTTAGTTG,switch fluorescence ratio,0.994 ± 0.013
ATTTTATCTC,switch fluorescence ratio,1.22 ± 0.27
TAAGCGATCT,switch fluorescence ratio,1.0192 ± 0.00013
TATTGGGTAA,switch fluorescence ratio,1.11 ± 0.14
CGCGGGTTCA,switch fluorescence ratio,1.03 ± 0.037
CATAATCCGA,switch fluorescence ratio,1.048 ± 0.0029
GTGTCGCGGG,switch fluorescence ratio,0.962 ± 0.013
GGGGCCGGGA,switch fluorescence ratio,1.12 ± 0.19
AAGTGGATAT,switch fluorescence ratio,0.999 ± 0.024
TTAGAAGGGG,switch fluorescence ratio,0.993 ± 0.015
